From article doi:10.1101/2024.02.16.579611 (bioRxiv, 2024)

Key:
crystal structure = biological target: the molecule itself; assay: crystal structure
[1] = biological target: T1, KorB (wild type), C-terminally His-tagged (plasmid RK2, UniProt P07674 1-358); assay: ITC
T1 sequence: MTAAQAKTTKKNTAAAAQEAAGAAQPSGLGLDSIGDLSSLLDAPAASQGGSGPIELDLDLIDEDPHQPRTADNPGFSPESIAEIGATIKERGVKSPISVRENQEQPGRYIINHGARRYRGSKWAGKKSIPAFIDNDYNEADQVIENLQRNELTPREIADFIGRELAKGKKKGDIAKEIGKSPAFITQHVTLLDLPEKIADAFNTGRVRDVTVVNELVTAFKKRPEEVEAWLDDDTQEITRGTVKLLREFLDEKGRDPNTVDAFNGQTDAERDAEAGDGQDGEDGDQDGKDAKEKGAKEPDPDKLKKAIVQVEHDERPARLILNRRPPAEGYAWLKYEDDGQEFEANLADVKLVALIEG

Kd [1]: 4.2 ± 0.5 µM
B1: KorA (wild type), C-terminally His-tagged (natural protein)
chain: MKKRLTESQFQEAIQGLEVGQQTIEIARGVLVDGKPQATFATSLGLTRGAVSQAVHRVWAAFEDKNLPEGYARVTAVLPEHQAYIVRKWEADAKKKQETKR
binding result (crystal structure): binds
